Experimental data from article PMC7608808 (Science Advances, 2020).
Read-outs that look alike come from different tables or passages of the source.

Experiments:
cryo-EM structure [1] = biological target: the molecule itself; assay: cryo-EM structure
cryo-EM structure [2] = biological target: the molecule itself; assay: cryo-EM structure; remark: listed apart in the source

Row | Protein | binding result (cryo-EM structure [1]) | binding result (cryo-EM structure [2])
1 | SugC (natural protein) MAEIVLDRVTKSYPDGAGGVRAAVKEFSMTIADGEFIILVGPSGCGKSTTLNMIAGLEEITSGELRIGGERVNEKAPKDRDIAMVFQSYALYPHMTVRQNIAFPLTLAKVPKAEIAAKVEETAKILDLSELLDRKPGQLSGGQRQRVAMGRAIVRSPKAFLMDEPLSNLDAKLRVQMRAEISRLQDRLGTTTVYVTHDQTEAMTLGDRVVVMLAGEVQQIGTPDELYSSPANLFVAGFIGSPAMNFFPATRTDVGVRLPFGEVTLTPHMLDLLDKQARPENIIVGIRPEHIEDSALLDGYARIRALTFSVRADIVESLGADKYVHFTTEGAGAESAQLAELAADSGAGTNQFIARVSADSRVRTGEQIELAIDTTKLSIFDAATGLNLTRDITPTDPTEAAGPDAG | binds | 
2 | SugC (E164Q) (natural protein) MAEIVLDRVTKSYPDGAGGVRAAVKEFSMTIADGEFIILVGPSGCGKSTTLNMIAGLEEITSGELRIGGERVNEKAPKDRDIAMVFQSYALYPHMTVRQNIAFPLTLAKVPKAEIAAKVEETAKILDLSELLDRKPGQLSGGQRQRVAMGRAIVRSPKAFLMDQPLSNLDAKLRVQMRAEISRLQDRLGTTTVYVTHDQTEAMTLGDRVVVMLAGEVQQIGTPDELYSSPANLFVAGFIGSPAMNFFPATRTDVGVRLPFGEVTLTPHMLDLLDKQARPENIIVGIRPEHIEDSALLDGYARIRALTFSVRADIVESLGADKYVHFTTEGAGAESAQLAELAADSGAGTNQFIARVSADSRVRTGEQIELAIDTTKLSIFDAATGLNLTRDITPTDPTEAAGPDAG |  | binds
